From PMC2691550 (Biochemistry, 2006)

Target: the molecule itself
Test: crystal structure

B1: Tyrosine phenol-lyase holoenzyme (Citrobacter freundii), in complex with pyridoxal-5′-phosphate and K+ at pH 8.0 (enzyme, UniProt P31013 1-456, looked up)
chain: MNYPAEPFRIKSVETVSMIPRDERLKKMQEAGYNTFLLNSKDIYIDLLTDSGTNAMSDKQWAGMMMGDEAYAGSENFYHLERTVQELFGFKHIVPTHQGRGAENLLSQLAIKPGQYVAGNMYFTTTRYHQEKNGAVFVDIVRDEAHDAGLNIAFKGDIDLKKLQKLIDEKGAENIAYICLAVTVNLAGGQPVSMANMRAVRELTEAHGIKVFYDATRCVENAYFIKEQEQGFENKSIAEIVHEMFSYADGCTMSGKKDCLVNIGGFLCMNDDEMFSSAKELVVVYEGMPSYGGLAGRDMEAMAIGLREAMQYEYIEHRVKQVRYLGDKLKAAGVPIVEPVGGHAVFLDARRFCEHLTQDEFPAQSLAASIYVETGVRSMERGIISAGRNNVTGEHHRPKLETVRLTIPRRVYTYAHMDVVADGIIKLYQHKEDIRGLKFIYEPKQLRFFTARFDYI
modifications: Lys257 Nζ covalently linked to C4′ of pyridoxal-5′-phosphate (internal aldimine)
stoichiometry N: 4
